Here are results for three molecules from patent US20240238445A1, “INHIBITORS AND USES THEREOF” (NEURACLE SCIENCE CO., LTD., priority 2021, published 2024).

Experiment [1] addresses binding of FAM19A5 protein to full-length ectodomain of LRRC4C protein (Homo sapiens, UniProt Q7Z5A7). Put plainly: Competitive inhibition assay, plate coated with full-length ectodomain of LRRC4C. Particulars: FAM19A5 5 ng/mL; 100 nM/well coat. As for the experimental part:
As described in Example 3, there appeared to be much similarity in the binding domains of the different members of the LRRC4 family. […] Then, recombinant FAM19A5 protein (5 ng/mL) was added in combination with one of the following: (i) LRRC4B (484-576) protein fragment, (ii) LRRC4B (453-576, AA) protein fragment, and (iii) synthetic FB-20 peptide. The plates were incubated at 37° C., and then, the amount of FAM19A5 protein bound to the coated LRRC4, LRRC4B, or LRRC4C proteins was measured using anti-FAM19A5 (1-65) antibody.

For experiment [2], the target named is T1, FAM19A5 protein (Homo sapiens, UniProt Q7Z5A7). Description: ELISA binding of recombinant FAM19A5 to coated hFc-conjugated LRRC4 family ectodomains, fragments or synthetic peptides. Particulars: coated 100 nM/well, FAM19A5 up to 10 nM. The procedure: Next, to confirm the above co-immunoprecipitation results, an ELISA assay was used to measure the binding of the FAM19A5 protein to either the full-length ectodomain of members of LRRC4 protein family or various LRRC4B ectodomain protein fragments. Specifically, an ELISA plate was coated with one of the following LRRC4B ectodomain protein, which was conjugated to human Fc (100 nM/well): (1) full-length ectodomain of LRRC4 protein (amino acid residues 39-527 of SEQ ID NO: 1) (SEQ ID NO: 4); (2) full-length ectodomain of LRRC4B protein (amino acids 36-576 of SEQ ID NO: 2; i.e., construct #7 in Table 6) (SEQ ID NO: 5); (3) full-length ectodomain of LRRC4C protein (amino acids 45-527 of SEQ ID NO: 3) (SEQ ID NO: 6); (4) LRRC4B ectodomain fragment (amino acids 453-576 of SEQ ID NO: 2; i.e., construct #11 in Table 6) (SEQ ID NO: 7); (5) LRRC4B ectodomain fragment (amino acids 484-576 of SEQ ID NO: 2; i.e., construct #12 in Table 6) (SEQ ID NO: 8); (6) LRRC4B ectodomain fragment (amino acids 482-576 of SEQ ID NO: 2) (SEQ ID NO: 9); (7) LRRC4B ectodomain fragment (amino acids 482-497 of SEQ ID NO: 2) (SEQ ID NO: 10); and (8) LRRC4B ectodomain fragment (amino acids 498-576 of SEQ ID NO: 2; i.e., construct #13 in Table 6) (SEQ ID NO: 11). Then, recombinant FAM19A5 proteins (0.005, 0.01, 0.025, 0.05, 0.1, 0.25, 0.5, 1, 2.5, 5, and 10 nM) were added to the relevant wells, and the plates were incubated at 37° C. for 1 hour. Afterwards, the amount of LRRC4B-bound FAM19A5 protein was detected using HRP-conjugated anti-FAM19A5 (1-65) antibody.
As further confirmation, three synthetic polypeptides comprising amino acids 484-497 of SEQ ID NO: 2 (i.e., YTYFTTVTVETLET; SEQ ID NO: 65) were constructed: (1) FB-16 (GYTYFTTVTVETLETQ; SEQ ID NO: 17), (2) FB-20 ([…]; SEQ ID NO: 18), and (3) FB-28 ([…]; SEQ ID NO: 19). The peptides differed in their total length. The ability of these polypeptides to bind to recombinant FAM19A5 protein was assessed using an ELISA assay as described above.

Experiment [3] addresses T1, FAM19A5 protein. Put plainly: Co-immunoprecipitation of FLAG-tagged LRRC4 family deletion constructs/fragments with recombinant FAM19A5 in HEK293 cells. In kind it is binding. Particulars: HEK293 cells expressing FLAG-tagged construct, recombinant FAM19A5 1 μM 30 minutes; IP anti-FLAG, blot anti-FAM19A5 (3-2). The gist of the method: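 HEK293 cells expressing FLAG-tagged LRRC4B deletion constructs or LRRC4C (aa 354-527) / LRRC4 (aa 353-527) fragments were treated with 1 μM recombinant FAM19A5 for 30 min. Lysates immunoprecipitated with anti-FLAG and immunoblotted with anti-FLAG and anti-FAM19A5 (3-2) antibodies.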

T1 sequence (Q7Z5A7 44-132): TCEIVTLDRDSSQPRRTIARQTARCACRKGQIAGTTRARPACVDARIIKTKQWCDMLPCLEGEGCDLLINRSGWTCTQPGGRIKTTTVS
binding of FAM19A5 protein to full-length ectodomain of LRRC4C protein, sequence (Q7Z5A7 44-132): as above

For the molecule GYTYFTTVTVETLETQPGEE [FB-20], the “inhibition of FAM19A5 binding to coated LRRC4C protein (in words)” value in experiment [1] is reported as “able to inhibit FAM19A5 protein from binding”. In experiment [2], the “binding to FAM19A5 protein (ELISA, in words)” value is recorded as “able to bind to recombinant FAM19A5 protein with high affinity”.

B1: LRRC4B (453-576): LRRC4B ectodomain fragment, amino acids 453-576 of SEQ ID NO: 2; FLAG-tagged or hFc-fused (protein)
chain: VSAVDPVAAGGTGSGGGGPGGSGGVGGGSGGYTYFTTVTVETLETQPGEEALQPRGTEKEPPGPTTDGVWGGGRPGDAAGPASSSTTAPAPRSSRPTEKAFTVPITDVTENALKDLDDVMKTTK
modifications: FLAG tag or human Fc
notes: FLAG-tagged or hFc-fused
In the case of B1, the “binding to FAM19A5 protein (co-immunoprecipitation)” value in experiment [3] is recorded as “able to bind to the FAM19A5 protein with varying degree”.

B2: LRRC4B (498-576): LRRC4B ectodomain fragment, amino acids 498-576 of SEQ ID NO: 2 (protein)
chain: QPGEEALQPRGTEKEPPGPTTDGVWGGGRPGDAAGPASSSTTAPAPRSSRPTEKAFTVPITDVTENALKDLDDVMKTTK
Regarding B2, the “binding to FAM19A5 protein (co-immunoprecipitation)” value in experiment [3] is listed as “not able to do so”. Besides, the “binding to FAM19A5 protein (ELISA, in words)” value in experiment [2] is listed as “failed to bind to FAM19A5”.
